Experimental data reported in article PMC8782398.

Experiments:
[1] = biological target: human NOP receptor in HEK293 cells (human) (UniProt P41146)
[2] = biological target: human NOP receptor in HEK293 cells (human) (UniProt P41146); remark: listed apart in the source
[3] = biological target: human NOP receptor in HEK293 cells (human) (UniProt P41146); remark: listed apart in the source

Sequence of human NOP receptor in HEK293 cells (human) (P41146 whole entry): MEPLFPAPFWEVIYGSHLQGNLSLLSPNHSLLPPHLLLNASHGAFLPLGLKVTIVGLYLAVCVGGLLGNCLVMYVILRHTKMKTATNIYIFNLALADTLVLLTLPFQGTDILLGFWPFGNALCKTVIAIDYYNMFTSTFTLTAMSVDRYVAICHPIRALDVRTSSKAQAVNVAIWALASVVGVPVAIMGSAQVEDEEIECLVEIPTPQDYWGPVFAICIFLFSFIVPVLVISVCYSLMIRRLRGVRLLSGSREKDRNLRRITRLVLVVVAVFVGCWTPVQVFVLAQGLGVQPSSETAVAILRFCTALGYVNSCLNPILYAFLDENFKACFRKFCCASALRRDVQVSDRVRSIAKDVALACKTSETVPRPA

Substance: human MOP receptor in HEK293 cells (from UniProt P35372 1-400)
- GTPγ[35S] binding stimulated by De101, HEK (MOP/NOP) membranes: pEC50 [1]: 8.67
- GTPγ[35S] binding stimulated by DeNO, HEK (MOP/NOP) membranes: pEC50 [1]: 7.63
- GTPγ[35S] binding stimulated by Dermorphin, HEK (MOP/NOP) membranes: pEC50 [1]: 7.6
- inhibition of cAMP formation by De101, HEK (MOP/NOP) cells: Emax (% inhibition) [1]: 86%
- inhibition of cAMP formation by De101, HEK (MOP/NOP) cells: pEC50 [1]: 8.81
- inhibition of cAMP formation by DeNO, HEK (MOP/NOP) cells: Emax (% inhibition) [1]: 88.6%
- inhibition of cAMP formation by DeNO, HEK (MOP/NOP) cells: pEC50 [1]: 7.55
- inhibition of cAMP formation by Dermorphin & N/OFQ (co-administered), HEK (MOP/NOP) cells: Emax (% inhibition) [1]: 81.3%
- inhibition of cAMP formation by Dermorphin & UFP-101 (co-administered), HEK (MOP/NOP) cells: Emax (% inhibition) [1]: 84.4%
- inhibition of cAMP formation by Dermorphin & UFP-101 (co-administered), HEK (MOP/NOP) cells: pEC50 [1]: 8.95
- inhibition of cAMP formation by Dermorphin, HEK (MOP/NOP) cells: Emax (% inhibition) [1]: 81.4%
- inhibition of cAMP formation by Dermorphin, HEK (MOP/NOP) cells: pEC50 [1]: 7.59
- inhibition of cAMP formation by N/OFQ, HEK (MOP/NOP) cells: Emax (% inhibition) [1]: 86.3%
- inhibition of cAMP formation by N/OFQ, HEK (MOP/NOP) cells: pEC50 [1]: 9.17
- ERK1/2 phosphorylation (fold over basal), 1 μM Dermorphin, HEK (MOP/NOP) cells, 2.5-30 min; peak at 10 min [2]: 11.8 fold
- ERK1/2 phosphorylation (fold over basal), 1 μM N/OFQ, HEK (MOP/NOP) cells, 2.5-30 min; peak at 7.5-10 min [3]: 5 fold
